In article PMC314469, “Protein Interaction Networks by Proteome Peptide Scanning” (PLoS Biology, 2004):

T1: Rvs167 SH3 (RV167_YEAST), P39743
T1 chain: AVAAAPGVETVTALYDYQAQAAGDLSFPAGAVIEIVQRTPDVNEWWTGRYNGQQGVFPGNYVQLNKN

T2: Boi1 SH3 (BOI1_YEAST), P38041
T2 chain: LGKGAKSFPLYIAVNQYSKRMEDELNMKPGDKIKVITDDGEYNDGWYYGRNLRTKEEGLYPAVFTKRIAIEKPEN

T3: Yhr016c SH3 (YSC84_YEAST), P32793
T3 chain: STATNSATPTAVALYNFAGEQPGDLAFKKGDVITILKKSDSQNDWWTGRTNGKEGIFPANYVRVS

T4: Yfr024 SH3 (LSB3_YEAST), P43603
T4 chain: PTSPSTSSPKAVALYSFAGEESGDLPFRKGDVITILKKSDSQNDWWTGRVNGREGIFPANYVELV

T5: Boi2 SH3 (BOI2_YEAST), P39969
T5 chain: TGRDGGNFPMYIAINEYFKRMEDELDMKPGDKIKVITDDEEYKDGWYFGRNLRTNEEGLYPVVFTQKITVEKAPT


Legend:
Assay in all cases: SPOT array
[1] = target: T1, Rvs167 SH3 (RV167_YEAST), P39743
[2] = target: T2, Boi1 SH3 (BOI1_YEAST), P38041
[3] = target: T3, Yhr016c SH3 (YSC84_YEAST), P32793
[4] = target: T4, Yfr024 SH3 (LSB3_YEAST), P43603
[5] = target: T5, Boi2 SH3 (BOI2_YEAST), P39969

| normalised SPOT signal, Boehringer light units (BLU); mean over the file's lines of this peptide [1] | normalised SPOT signal, Boehringer light units (BLU); mean over the file's lines of this peptide [2] | normalised SPOT signal, Boehringer light units (BLU); mean over the file's lines of this peptide [3] | normalised SPOT signal, Boehringer light units (BLU); mean over the file's lines of this peptide [4] | normalised SPOT signal, Boehringer light units (BLU); mean over the file's lines of this peptide [5] | Binder |
| --- | --- | --- | --- | --- | --- |
| 10 | 107 | 158 | 812 | 10.1 | VILPQIPPKLTFIL [YOR067C 374-387] |
| 23.1 | 61.9 | 425 | 1200 | 17 | VPEPSKPSRLLLVR [YNL034W 549-562] |
| 3250 | 494 | 3880 | 23000 | 232 | VPRPSPPIRRKSST [YNL106C 1070-1083] |
| 52.6 | 53.1 | 845 | 4140 | 55.9 | VQTPHVPDRPPSQL [YPR104C 731-744] |
| -0 | 80.3 | 217 | 141 | 25.5 | VPSPGLPEKVNEKS [YLR119W 34-47] |
| 19.5 | 16.2 | 157 | 136 | 12.4 | VPDPSTPSKPNLEV [YML016C 62-75] |
| 59 | 44.6 | 246 | 1090 | 41.9 | VKEPSFPSRSAFSP [YMR191W 432-445] |
| 58 | 253 | 387 | 413 | 83.6 | VMVPHLPGKILLSN [YOR357C 104-117] |

Continued, binder first:

| Binder | normalised SPOT signal, Boehringer light units (BLU); mean over the file's lines of this peptide [1] | normalised SPOT signal, Boehringer light units (BLU); mean over the file's lines of this peptide [2] | normalised SPOT signal, Boehringer light units (BLU); mean over the file's lines of this peptide [3] | normalised SPOT signal, Boehringer light units (BLU); mean over the file's lines of this peptide [4] | normalised SPOT signal, Boehringer light units (BLU); mean over the file's lines of this peptide [5] |
| --- | --- | --- | --- | --- | --- |
| VMKPKSPDKEFFDA [YJR066W 1483-1496] | 48.3 | 90.1 | 280 | 852 | 134 |
| VIRPGVPTKFTKKQ [YDL171C 1275-1288] | 58.1 | 121 | 125 | 202 | 63.3 |
| VLEPSKPYKKNPFM [YBR284W 663-676] | 5.8 | 116 | 127 | 238 | 84 |
| VNTPREPVRSSSKI [YJL076W 1015-1028] | 69.7 | 75.8 | 99.4 | 910 | 30.9 |
| VSPPFFPEKELNNR [YKR010C 454-467] | 32.6 | 41.2 | 97.4 | 323 | 25.6 |
| VKRPLSPTRINGKS [YDR379W 155-168] | 445 | 208 | 499 | 2290 | 49 |
| VQQPEDPLRVLGEY [YDR469W 143-156] | 37.1 | 24.5 | 65.5 | 46.1 | 16.6 |
| VPSPIVPNKMRKQL [YKL052C 214-227] | 202 | 530 | 191 | 2650 | 126 |
| VPPPNVPKKDKREV [YBR058C 659-672] | 124 | 294 | 206 | 980 | 17.8 |
| VKKPARPWRAKPGQ [YKL220C 450-463] | 49.8 | 90.9 | 314 | 5310 | 88.2 |
| VKHPMKPFRLMLTD [YGL194C 43-56] | 358 | 101 | 3110 | 3950 | 203 |
| VIMPEGPRKSVSMA [YJL005W 424-437] | 176 | 75.3 | 358 | 1120 | 232 |
| VSDPYVPTRNTFNY [YDL020C 142-155] | 60.9 | 174 | 268 | 814 | 23.2 |
| VSIPFDPSKDTFDH [YEL031W 741-754] | 72.7 | 105 | 70.3 | 0 | 34.1 |
